Laboratory results published in patent US20230242651A1 (published 2023).

How the values were obtained:
[1] = target: T1, human interleukin-23 receptor (IL23R) (human, UniProt Q5VWK5 24-355, limits assumed); assay: SPR, scFv
T1 construct: also called human IL23R
T1 sequence (looked up): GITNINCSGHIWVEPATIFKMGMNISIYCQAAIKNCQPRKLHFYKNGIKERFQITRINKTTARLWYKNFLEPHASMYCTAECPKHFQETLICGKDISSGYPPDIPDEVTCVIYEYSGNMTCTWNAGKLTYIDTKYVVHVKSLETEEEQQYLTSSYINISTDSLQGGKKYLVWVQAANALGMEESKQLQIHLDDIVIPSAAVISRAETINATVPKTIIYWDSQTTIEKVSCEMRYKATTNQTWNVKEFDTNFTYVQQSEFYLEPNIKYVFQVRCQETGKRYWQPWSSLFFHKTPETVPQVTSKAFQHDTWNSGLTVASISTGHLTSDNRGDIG
Outline: (§1)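 Binding to human IL23R was assessed by surface plasmon resonance, with values given as rate constants and dissociation constant or as a λ-capped over uncapped dissociation-constant ratio. The binders were humanized rabbit variable domains in single-chain variable fragment format on consensus germline framework pairs, with or without a λ-cap. Each was produced in E. coli as inclusion bodies and refolded after solubilization.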

[2] = target: T1, human interleukin-23 receptor (IL23R); assay: SPR, scFv (summary table)
Outline: as §1

B1: Vκ1/VH5 consensus (uncapped), human IL23R specific scFv (scFv)
scFv: DIQMTQSPSSLSASVGDRVTITCQASENIYSFLAWYQQKPGKAPKLLIYSASKLAAGVPSRFSGSGSGTDFTLTISSLQPEDFATYYCQQTNRYSNPDIYNVFGQGTKVEIKRGGGGSGGGGSGGGGSGGGGSEVQLVQSGAEVKKPGESLKISCKGSGIDFNSNYYMCWVRQMPGKGLEWMGCIYVGSHVNTYYANWAKGQVTISADKSISTAYLQWSSLKASDTAMYYCATSGSSVLYFKFWGQGTLVTVSS
notes: scFv VL-linker-VH, made in E. coli; Vκ framework IV (uncapped, full consensus); also called Vκ1VH5 uncapped
Kd [1]: 0.239 nM
koff [1]: 0.000538 s⁻¹
kon [1]: 2.25e+06 M⁻¹ s⁻¹
Kd [2]: 0.239 nM

B2: Vκ2/VH4 consensus (uncapped), human IL23R specific scFv (scFv)
scFv: DIVMTQSPLSLPVTPGEPASISCQASENIYSFLAWYLQKPGQSPQLLIYSASKLAAGVPDRFSGSGSGTDFTLKISRVEAEDVGVYYCQQTNRYSNPDIYNVFGQGTKVEIKRGGGGSGGGGSGGGGSGGGGSQVQLQESGPGLVKPSETLSLTCTVSGIDFNSNYYMCWIRQPPGKGLEWIGCIYVGSHVNTYYANWAKGRVTISVDTSKNQFSLKLSSVTAADTAVYYCATSGSSVLYFKFWGQGTLVTVSS
notes: scFv VL-linker-VH, made in E. coli; Vκ framework IV (uncapped, full consensus); also called Vκ2VH4 uncapped
Kd [1]: 0.125 nM
koff [1]: 0.000157 s⁻¹
kon [1]: 1.26e+06 M⁻¹ s⁻¹
Kd [2]: 0.125 nM

B3: Vκ3/VH2 consensus (uncapped), human IL23R specific scFv (scFv)
scFv: DIVLTQSPATLSLSPGERATLSCQASENIYSFLAWYQQKPGQAPRLLIYSASKLAAGVPARFSGSGSGTDFTLTISSLEPEDFAVYYCQQTNRYSNPDIYNVFGQGTKVEIKRGGGGSGGGGSGGGGSGGGGSQVQLKESGPALVKPTQTLTLTCTFSGIDFNSNYYMCWIRQPPGKALEWLACIYVGSHVNTYYANWAKGRLTISKDTSKNQVVLTMTNMDPVDTATYYCATSGSSVLYFKFWGQGTLVTVSS
notes: scFv VL-linker-VH, made in E. coli; Vκ framework IV (uncapped, full consensus); also called Vκ3VH2 uncapped
Kd [1]: 0.462 nM
koff [1]: 0.000363 s⁻¹
kon [1]: 786000 M⁻¹ s⁻¹
Kd [2]: 0.462 nM

B4: Vκ1/VH4 consensus (uncapped), human IL23R specific scFv (scFv)
scFv: DIQMTQSPSSLSASVGDRVTITCQASENIYSFLAWYQQKPGKAPKLLIYSASKLAAGVPSRFSGSGSGTDFTLTISSLQPEDFATYYCQQTNRYSNPDIYNVFGQGTKVEIKRGGGGSGGGGSGGGGSGGGGSQVQLQESGPGLVKPSETLSLTCTVSGIDFNSNYYMCWIRQPPGKGLEWIGCIYVGSHVNTYYANWAKGRVTISVDTSKNQFSLKLSSVTAADTAVYYCATSGSSVLYFKFWGQGTLVTVSS
notes: scFv VL-linker-VH, made in E. coli; Vκ framework IV (uncapped, full consensus); also called Vκ1VH4 uncapped
Kd [1]: 0.0991 nM
koff [1]: 0.000176 s⁻¹
kon [1]: 1.78e+06 M⁻¹ s⁻¹
Kd [2]: 0.0991 nM

B5: Vκ2/VH6 consensus (uncapped), human IL23R specific scFv (scFv)
scFv: DIVMTQSPLSLPVTPGEPASISCQASENIYSFLAWYLQKPGQSPQLLIYSASKLAAGVPDRFSGSGSGTDFTLKISRVEAEDVGVYYCQQTNRYSNPDIYNVFGQGTKVEIKRGGGGSGGGGSGGGGSGGGGSQVQLQQSGPGLVKPSQTLSLTCAISGIDFNSNYYMCWIRQSPGRGLEWLGCIYVGSHVNTYYANWAKGRITINPDTSKNQFSLQLNSVTPEDTAVYYCATSGSSVLYFKFWGQGTLVTVSS
notes: scFv VL-linker-VH, made in E. coli; Vκ framework IV (uncapped, full consensus); also called Vκ2VH6 uncapped
Kd [1]: 3.24 nM
koff [1]: 0.000288 s⁻¹
kon [1]: 88700 M⁻¹ s⁻¹
Kd [2]: 3.24 nM

B6: Vκ1/VH6 consensus (uncapped), human IL23R specific scFv (scFv)
scFv: DIQMTQSPSSLSASVGDRVTITCQASENIYSFLAWYQQKPGKAPKLLIYSASKLAAGVPSRFSGSGSGTDFTLTISSLQPEDFATYYCQQTNRYSNPDIYNVFGQGTKVEIKRGGGGSGGGGSGGGGSGGGGSQVQLQQSGPGLVKPSQTLSLTCAISGIDFNSNYYMCWIRQSPGRGLEWLGCIYVGSHVNTYYANWAKGRITINPDTSKNQFSLQLNSVTPEDTAVYYCATSGSSVLYFKFWGQGTLVTVSS
notes: scFv VL-linker-VH, made in E. coli; Vκ framework IV (uncapped, full consensus); also called Vκ1VH6 uncapped
Kd [1]: 0.251 nM
koff [1]: 0.000309 s⁻¹
kon [1]: 1.23e+06 M⁻¹ s⁻¹
Kd [2]: 0.251 nM

B7: Vκ2/VH2 consensus λ-capped, human IL23R specific scFv (scFv)
scFv: DIVMTQSPLSLPVTPGEPASISCQASENIYSFLAWYLQKPGQSPQLLIYSASKLAAGVPDRFSGSGSGTDFTLKISRVEAEDVGVYYCQQTNRYSNPDIYNVFGGGTKLTVLGGGGGSGGGGSGGGGSGGGGSQVQLKESGPALVKPTQTLTLTCTFSGIDFNSNYYMCWIRQPPGKALEWLACIYVGSHVNTYYANWAKGRLTISKDTSKNQVVLTMTNMDPVDTATYYCATSGSSVLYFKFWGQGTLVTVSS
notes: scFv VL-linker-VH, made in E. coli; also called Vκ2VH2 capped
Kd [1]: 0.0741 nM
koff [1]: 0.000102 s⁻¹
kon [1]: 1.38e+06 M⁻¹ s⁻¹
Kd [2]: 0.0741 nM

B8: Vκ1/VH2 consensus (uncapped), human IL23R specific scFv (scFv)
scFv: DIQMTQSPSSLSASVGDRVTITCQASENIYSFLAWYQQKPGKAPKLLIYSASKLAAGVPSRFSGSGSGTDFTLTISSLQPEDFATYYCQQTNRYSNPDIYNVFGQGTKVEIKRGGGGSGGGGSGGGGSGGGGSQVQLKESGPALVKPTQTLTLTCTFSGIDFNSNYYMCWIRQPPGKALEWLACIYVGSHVNTYYANWAKGRLTISKDTSKNQVVLTMTNMDPVDTATYYCATSGSSVLYFKFWGQGTLVTVSS
notes: scFv VL-linker-VH, made in E. coli; Vκ framework IV (uncapped, full consensus); also called Vκ1VH2 uncapped
Kd [1]: 0.211 nM
koff [1]: 0.000333 s⁻¹
kon [1]: 1.58e+06 M⁻¹ s⁻¹
Kd [2]: 0.211 nM

B9: Vκ3/VH1A consensus (uncapped), human IL23R specific scFv (scFv)
scFv: DIVLTQSPATLSLSPGERATLSCQASENIYSFLAWYQQKPGQAPRLLIYSASKLAAGVPARFSGSGSGTDFTLTISSLEPEDFAVYYCQQTNRYSNPDIYNVFGQGTKVEIKRGGGGSGGGGSGGGGSGGGGSQVQLVQSGAEVKKPGSSVKVSCKASGIDFNSNYYMCWVRQAPGQGLEWMGCIYVGSHVNTYYANWAKGRVTITADESTSTAYMELSSLRSEDTAVYYCATSGSSVLYFKFWGQGTLVTVSS
notes: scFv VL-linker-VH, made in E. coli; Vκ framework IV (uncapped, full consensus); also called Vκ3VH1A uncapped
Kd [1]: 0.297 nM
koff [1]: 0.000479 s⁻¹
kon [1]: 1.61e+06 M⁻¹ s⁻¹
Kd [2]: 0.297 nM

B10: Vκ3/VH1B consensus (uncapped), human IL23R specific scFv (scFv)
scFv: DIVLTQSPATLSLSPGERATLSCQASENIYSFLAWYQQKPGQAPRLLIYSASKLAAGVPARFSGSGSGTDFTLTISSLEPEDFAVYYCQQTNRYSNPDIYNVFGQGTKVEIKRGGGGSGGGGSGGGGSGGGGSQVQLVQSGAEVKKPGASVKVSCKASGIDFNSNYYMCWVRQAPGQGLEWMGCIYVGSHVNTYYANWAKGRVTMTRDTSISTAYMELSSLRSEDTAVYYCATSGSSVLYFKFWGQGTLVTVSS
notes: scFv VL-linker-VH, made in E. coli; Vκ framework IV (uncapped, full consensus); also called Vκ3VH1B uncapped
Kd [1]: 0.455 nM
koff [1]: 0.000724 s⁻¹
kon [1]: 1.59e+06 M⁻¹ s⁻¹
Kd [2]: 0.455 nM

B11: Vκ2/VH3 consensus (uncapped), human IL23R specific scFv (scFv)
scFv: DIVMTQSPLSLPVTPGEPASISCQASENIYSFLAWYLQKPGQSPQLLIYSASKLAAGVPDRFSGSGSGTDFTLKISRVEAEDVGVYYCQQTNRYSNPDIYNVFGQGTKVEIKRGGGGSGGGGSGGGGSGGGGSEVQLVESGGGLVQPGGSLRLSCAASGIDFNSNYYMCWVRQAPGKGLEWVSCIYVGSHVNTYYANWAKGRFTISRDNSKNTLYLQMNSLRAEDTAVYYCATSGSSVLYFKFWGQGTLVTVSS
notes: scFv VL-linker-VH, made in E. coli; Vκ framework IV (uncapped, full consensus); also called Vκ2VH3 uncapped
Kd [1]: 0.0236 nM
koff [1]: 4.3e-05 s⁻¹
kon [1]: 1.82e+06 M⁻¹ s⁻¹
Kd [2]: 0.0236 nM

B12: Vκ1/VH3 consensus (uncapped), human IL23R specific scFv (scFv)
scFv: DIQMTQSPSSLSASVGDRVTITCQASENIYSFLAWYQQKPGKAPKLLIYSASKLAAGVPSRFSGSGSGTDFTLTISSLQPEDFATYYCQQTNRYSNPDIYNVFGQGTKVEIKRGGGGSGGGGSGGGGSGGGGSEVQLVESGGGLVQPGGSLRLSCAASGIDFNSNYYMCWVRQAPGKGLEWVSCIYVGSHVNTYYANWAKGRFTISRDNSKNTLYLQMNSLRAEDTAVYYCATSGSSVLYFKFWGQGTLVTVSS
notes: scFv VL-linker-VH, made in E. coli; Vκ framework IV (uncapped, full consensus); also called Vκ1VH3 uncapped
Kd [1]: 0.0347 nM
koff [1]: 5.28e-05 s⁻¹
kon [1]: 1.52e+06 M⁻¹ s⁻¹
Kd [2]: 0.0347 nM

B13: Vκ2/VH5 consensus (uncapped), human IL23R specific scFv (scFv)
scFv: DIVMTQSPLSLPVTPGEPASISCQASENIYSFLAWYLQKPGQSPQLLIYSASKLAAGVPDRFSGSGSGTDFTLKISRVEAEDVGVYYCQQTNRYSNPDIYNVFGQGTKVEIKRGGGGSGGGGSGGGGSGGGGSEVQLVQSGAEVKKPGESLKISCKGSGIDFNSNYYMCWVRQMPGKGLEWMGCIYVGSHVNTYYANWAKGQVTISADKSISTAYLQWSSLKASDTAMYYCATSGSSVLYFKFWGQGTLVTVSS
notes: scFv VL-linker-VH, made in E. coli; Vκ framework IV (uncapped, full consensus); also called Vκ2VH5 uncapped
Kd [1]: 0.303 nM
koff [1]: 0.000475 s⁻¹
kon [1]: 1.57e+06 M⁻¹ s⁻¹
Kd [2]: 0.303 nM

B14: Vκ2/VH1A consensus (uncapped), human IL23R specific scFv (scFv)
scFv: DIVMTQSPLSLPVTPGEPASISCQASENIYSFLAWYLQKPGQSPQLLIYSASKLAAGVPDRFSGSGSGTDFTLKISRVEAEDVGVYYCQQTNRYSNPDIYNVFGQGTKVEIKRGGGGSGGGGSGGGGSGGGGSQVQLVQSGAEVKKPGSSVKVSCKASGIDFNSNYYMCWVRQAPGQGLEWMGCIYVGSHVNTYYANWAKGRVTITADESTSTAYMELSSLRSEDTAVYYCATSGSSVLYFKFWGQGTLVTVSS
notes: scFv VL-linker-VH, made in E. coli; Vκ framework IV (uncapped, full consensus); also called Vκ2VH1A uncapped
Kd [1]: 0.222 nM
koff [1]: 0.000279 s⁻¹
kon [1]: 1.26e+06 M⁻¹ s⁻¹
Kd [2]: 0.222 nM

B15: Vκ2/VH1B consensus λ-capped, human IL23R specific scFv (scFv)
scFv: DIVMTQSPLSLPVTPGEPASISCQASENIYSFLAWYLQKPGQSPQLLIYSASKLAAGVPDRFSGSGSGTDFTLKISRVEAEDVGVYYCQQTNRYSNPDIYNVFGGGTKLTVLGGGGGSGGGGSGGGGSGGGGSQVQLVQSGAEVKKPGASVKVSCKASGIDFNSNYYMCWVRQAPGQGLEWMGCIYVGSHVNTYYANWAKGRVTMTRDTSISTAYMELSSLRSEDTAVYYCATSGSSVLYFKFWGQGTLVTVSS
notes: scFv VL-linker-VH, made in E. coli; also called Vκ2VH1B capped
Kd [1]: 0.143 nM
koff [1]: 0.000326 s⁻¹
kon [1]: 2.29e+06 M⁻¹ s⁻¹
Kd [2]: 0.143 nM
